Assay results: publication PMC3864023

Key:
[1] = target: ParC WT;ParE (Escherichia coli;Escherichia coli, UniProt P0AFI2;P20083 1-752;1-630, |); test: fluorescence anisotropy
[2] = target: ParC R564D;ParE (Escherichia coli;Escherichia coli, UniProt P0AFI2;P20083 1-752;1-630, R564D|); test: fluorescence anisotropy

B1: 45mer duplex with strong topo II site, FAM (dsDNA)
DNA 1: GCCTATCCGAGGATGACGATGCGCGCATCGTCATACAGCGAATGG
DNA 2: CCATTCGCTGTATGACGATGCGCGCATCGTCATCCTCGGATAGGC
Kd [1]: 25 5 | Kd [2]: 15 3
